Patent publication US20130209454A1

Assays:
Experiment in all cases: cell-based or functional assay
[1] = target: HIV-1 Env of strain 0330.v4.c3 (HIV-1)
[2] = target: HIV-1 Env of strain 211-9 (HIV-1)
[3] = target: HIV-1 Env of strain 3016.v5.c45 (HIV-1)
[4] = target: HIV-1 Env of strain 620345.c01 (HIV-1)
[5] = target: HIV-1 Env of strain CAP45.2.00.G3 (HIV-1)
[6] = target: HIV-1 Env of strain CNE58 (HIV-1)
[7] = target: HIV-1 Env of strain Ce0393_C3 (HIV-1)
[8] = target: HIV-1 Env of strain Ce0682_E4 (HIV-1)
[9] = target: HIV-1 Env of strain Ce2010_F5 (HIV-1)
[10] = target: HIV-1 Env of strain Ce2060_G9 (HIV-1)
[11] = target: HIV-1 Env of strain Du156.12 (HIV-1)
[12] = target: HIV-1 Env of strain Du172.17 (HIV-1)
[13] = target: HIV-1 Env of strain HIV-16845-2.22 (HIV-1)
[14] = target: HIV-1 Env of strain Q259.d2.17 (HIV-1)
[15] = target: HIV-1 Env of strain Q842.d12 (HIV-1)
[16] = target: HIV-1 Env of strain QH0692.42 (HIV-1)
[17] = target: HIV-1 Env of strain R2184.c04 (HIV-1)
[18] = target: HIV-1 Env of strain T251-18 (HIV-1)
[19] = target: HIV-1 Env of strain TRO.11 (HIV-1)
[20] = target: HIV-1 Env of strain WITO4160.33 (HIV-1)
[21] = target: HIV-1 Env of strain X2131_C1_B5 (HIV-1)
[22] = target: HIV-1 Env of strain ZM109F.PB4 (HIV-1)
[23] = target: HIV-1 Env of strain ZM233M.PB6 (HIV-1)
[24] = target: HIV-1 strain 0815.v3.c3 envelope (gp120) (HIV-1)
[25] = target: HIV-1 strain 1054_07_TC4_1499 envelope (gp120) (HIV-1)
[26] = target: HIV-1 strain 231966.c02 envelope (gp120) (HIV-1)
[27] = target: HIV-1 strain 3016.v5.c45 envelope (gp120) (HIV-1)
[28] = target: HIV-1 strain 3103.v3.c10 envelope (gp120) (HIV-1)
[29] = target: HIV-1 strain 3301.v1.c24 envelope (gp120) (HIV-1)
[30] = target: HIV-1 strain 3415.v1.c1 envelope (gp120) (HIV-1)
[31] = target: HIV-1 strain 3718.v3.c11 envelope (gp120) (HIV-1)
[32] = target: HIV-1 strain 3817.v2.c59 envelope (gp120) (HIV-1)
[33] = target: HIV-1 strain 6480.v4.c25 envelope (gp120) (HIV-1)
[34] = target: HIV-1 strain AC10.0.29 envelope (gp120) (HIV-1)
[35] = target: HIV-1 strain CAAN5342.A2 envelope (gp120) (HIV-1)
[36] = target: HIV-1 strain CNE20 envelope (gp120) (HIV-1)
[37] = target: HIV-1 strain Ce2010_F5 envelope (gp120) (HIV-1)
[38] = target: HIV-1 strain Du156.12 envelope (gp120) (HIV-1)
[39] = target: HIV-1 strain HIV-16845-2.22 envelope (gp120) (HIV-1)
[40] = target: HIV-1 strain P1981_C5_3 envelope (gp120) (HIV-1)
[41] = target: HIV-1 strain PVO.4 envelope (gp120) (HIV-1)
[42] = target: HIV-1 strain QH0692.42 envelope (gp120) (HIV-1)
[43] = target: HIV-1 strain R2184.04 envelope (gp120) (HIV-1)
[44] = target: HIV-1 strain RHPA4259.7 envelope (gp120) (HIV-1)
[45] = target: HIV-1 strain T255-34 envelope (gp120) (HIV-1)
[46] = target: HIV-1 strain THRO4156.18 envelope (gp120) (HIV-1)
[47] = target: HIV-1 strain TRO.11 envelope (gp120) (HIV-1)
[48] = target: HIV-1 strain X1193_c1 envelope (gp120) (HIV-1)
[49] = target: HIV-1 strain X2131_C1_B5 envelope (gp120) (HIV-1)
[50] = target: HIV-1 strain ZM197M.PB7 envelope (gp120) (HIV-1)

B1: NIH45-46^G54W IgG (antibody, name in Kabat numbering, V domains shown)
VH: QVRLSQSGGQMKKPGESMRLSCRASGYEFLNCPINWIRLAPGRRPEWMGWLKPRWGAVNYARKFQGRVTMTRDVYSDTAFLELRSLTSDDTAVYFCTRGKYCTARDYYNWDFEHWGRGAPVTVSS
VL: EIVLTQSPATLSLSPGETAIISCRTSQSGSLAWYQQRPGQAPRLVIYSGSTRAAGIPDRFSGSRWGADYNLSISNLESGDFGVYYCQQYEFFGQGTKVQVDI
[1]
  neutralization IC50: 0.03 µg/mL
[2]
  neutralization IC50: 16.4 µg/mL
[3]
  neutralization IC50: 1.47 µg/mL
[4]
  neutralization IC50: > 50 µg/mL
[5]
  neutralization IC50: 32.2 µg/mL
[6]
  neutralization IC50: 0.02 µg/mL
[7]
  neutralization IC50: 0.013 µg/mL
[8]
  neutralization IC50: 0.01 µg/mL
[9]
  neutralization IC50: 0.038 µg/mL
[10]
  neutralization IC50: 0.005 µg/mL
[11]
  neutralization IC50: < 0.001 µg/mL
[12]
  neutralization IC50: 3.65 µg/mL
[13]
  neutralization IC50: 0.45 µg/mL
[14]
  neutralization IC50: < 0.001 µg/mL
[15]
  neutralization IC50: 0.005 µg/mL
[16]
  neutralization IC50: 0.37 µg/mL
[17]
  neutralization IC50: 0.005 µg/mL
[18]
  neutralization IC50: 0.26 µg/mL
[19]
  neutralization IC50: 0.04 µg/mL
[20]
  neutralization IC50: 0.01 µg/mL
[21]
  neutralization IC50: 0.05 µg/mL
[22]
  neutralization IC50: 0.002 µg/mL
[23]
  neutralization IC50: 0.02 µg/mL
[24]
  neutralization IC80: 0.003 µg/mL
[25]
  neutralization IC80: 0.165 µg/mL
[26]
  neutralization IC80: 0.11 µg/mL
[27]
  neutralization IC80: 15.4 µg/mL
[28]
  neutralization IC80: 0.56 µg/mL
[29]
  neutralization IC80: 0.004 µg/mL
[30]
  neutralization IC80: 0.023 µg/mL
[31]
  neutralization IC80: 0.04 µg/mL
[32]
  neutralization IC80: > 50 µg/mL
[33]
  neutralization IC80: 0.021 µg/mL
[34]
  neutralization IC80: 0.63 µg/mL
[35]
  neutralization IC80: 0.21 µg/mL
[36]
  neutralization IC80: 0.48 µg/mL
[37]
  neutralization IC80: 0.187 µg/mL
[38]
  neutralization IC80: 0.005 µg/mL
[39]
  neutralization IC80: 2.1 µg/mL
[40]
  neutralization IC80: 0.07 µg/mL
[41]
  neutralization IC80: 0.16 µg/mL
[42]
  neutralization IC80: 1.12 µg/mL
[43]
  neutralization IC80: 0.036 µg/mL
[44]
  neutralization IC80: 0.007 µg/mL
[45]
  neutralization IC80: 0.099 µg/mL
[46]
  neutralization IC80: 1.81 µg/mL
[47]
  neutralization IC80: 0.13 µg/mL
[48]
  neutralization IC80: 0.009 µg/mL
[49]
  neutralization IC80: 0.24 µg/mL
[50]
  neutralization IC80: 0.18 µg/mL
